In general, IC50 refers to the concentration that inhibits the measured activity by half. Higher therefore signals weaker potency.

The target in assay [1] is IL-12 (UniProt P29460). The assay can be described thus: receptor binding assay (RBA).
Assay [2] deals with human IL-12 p70 (human) (UniProt P29460). Nature of the assay: koff; method not given.
human IL-12 p70 (human), sequence (P29460 23-328, chain 1 of 2): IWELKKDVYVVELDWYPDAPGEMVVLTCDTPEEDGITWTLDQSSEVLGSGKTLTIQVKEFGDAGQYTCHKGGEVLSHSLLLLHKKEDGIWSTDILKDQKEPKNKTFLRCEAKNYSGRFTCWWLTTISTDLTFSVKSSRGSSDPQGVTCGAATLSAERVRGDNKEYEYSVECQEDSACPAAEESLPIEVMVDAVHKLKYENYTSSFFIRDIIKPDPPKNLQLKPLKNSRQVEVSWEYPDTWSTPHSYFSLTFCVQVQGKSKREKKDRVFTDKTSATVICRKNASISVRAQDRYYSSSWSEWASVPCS
human IL-12 p70 (human), sequence (chain, as listed by the source, chain 2 of 2): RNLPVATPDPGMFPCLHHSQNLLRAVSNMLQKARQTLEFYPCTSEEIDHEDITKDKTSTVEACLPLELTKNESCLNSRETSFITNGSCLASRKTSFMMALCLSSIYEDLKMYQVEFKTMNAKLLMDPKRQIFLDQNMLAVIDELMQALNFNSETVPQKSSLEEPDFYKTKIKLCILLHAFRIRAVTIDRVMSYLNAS

IL-12, sequence (P29460 23-328, chain 1 of 2): as the sequence (P29460 23-328, chain 1 of 2) above
IL-12, sequence (P29459 23-219, chain 2 of 2, further chain): as the sequence (chain, as listed by the source, chain 2 of 2) above

In assay [1], Y61 L50Y gave an IC50 of 0.02 nM.

Y61 L94Y gave an IC50 in assay [1] of 0.06 nM.

In turn, “Y61 with His-H95 mutated to glutamate (antibody)” registered a fold increase in koff (against Y61) in assay [2] of 8 fold.

“Y61 with Asn-L31 mutated to aspartate (antibody)” had a fold increase in koff (against Y61) in assay [2] of 2.5 fold.

These data come from patent US20120288494A1.
